The results in this text go back to patent US20110110934A1.

The target of the assay is mG-CSF (recombinant murine G-CSF, R&D Systems Cat #414-CS) (mouse) (UniProt P09920). As to the kind of experiment: cell-based or functional assay.
Sequence of UniProt P09920 (P09920 31-208 limits assumed): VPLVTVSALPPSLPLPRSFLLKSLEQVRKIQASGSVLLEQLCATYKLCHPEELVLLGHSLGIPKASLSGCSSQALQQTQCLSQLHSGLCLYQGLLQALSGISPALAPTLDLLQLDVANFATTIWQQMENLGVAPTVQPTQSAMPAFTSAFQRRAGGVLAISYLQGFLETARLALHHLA

As for Anti-G-CSF (MAB414) (antibody), the inhibition of mG-CSF proliferation of hG-CSFR BaF3 cells (MTS reduction, 48 hours), IC50 stood at 10 pM.

For “soluble hG-CSFR-Fc protein (from UniProt Q99062 25-627) (Fc fusion)”, the inhibition of mG-CSF proliferation of hG-CSFR BaF3 cells (MTS reduction, 48 hours), IC50 was found to be 22 pM.
